Measured values: paper PMC9467613 (mAbs, 2022)
Changes are numbered by the printed parent chain.

B1: B7-H4 purified monomeric recombinant human protein (natural protein)
chain: LIIGFGISGRHSITVTTVASAGNIGEDGILSCTFEPDIKLSDIVIQWLKEGVLGLVHEFKEGKDELSEQDEMFRGRTAVFADQVIVGNASLRLKNVQLTDAGTYKCYIITSKGKGNANLEYKTGAFSMPEVNVDYNASSETLRCEAPRWFPQPTVVWASQVDQGANFSEVSNTSFELNSENVTMKVVSVLYNVTINNTYSCMIENDIAKATGDIKVTESEIKRRSHLQLLNSKAS
B2: A01 (scFv, V domains shown)
VH: EVQLVESGGGVVQPGRSLRLSCAASGFTFSNKAMNWVRQAPGKGLEWVSAISGSGATTYYADSVKGRFTISRDNSKNTLYLQMNSLRAEDTAVYYCARKRWYGMDVWGQGTTVTVSS
VL: SYELTQPPSVSVAPGKTARITCGGNNIGSKSVHWYQQKPGQAPVLVVYDDSDRPSGIPERFSGSNSGNTATLTISRVEAGDEADYYCQVWDRGMIFGTGTKLTVL
B3: B02 (scFv, V domains shown)
VH: B2 VH with N31S, K32R, A33S, A56S, T58V
VL: SYELTQPPSVSVAPGKTARITCGGNNIGVKSVHWYQQKPGQAPVLVVYDDSDRSPGIPERFSGSNSGNTATLTISRVEAGDEADYYCQVWDSRTYVFGTGTKLTVL
B4: A10 (scFv, V domains shown)
VH: B2 VH with N31S, K32R, A33S, S54T, A56Y
VL: B2 VL
B5: B11 (scFv, V domains shown)
VH: B2 VH with S30T, N31S, K32R, T58A
VL: B2 VL
B6: B03 (scFv, V domains shown)
VH: B2 VH with S30G, N31D, K32R, A56S, T57G
VL: B2 VL with S29M
B7: A07 (scFv, V domains shown)
VH: B2 VH with N31S, K32R, A33S, A56S, T58V
VL: B3 VL with V29S, S54P, P55S
B8: B07 (scFv, V domains shown)
VH: B2 VH with S30G, N31D, K32R
VL: B2 VL
B9: A05 (scFv, V domains shown)
VH: B2 VH with F29Y, N31S, K32R, A56S, T57N, T58A
VL: B2 VL
B10: B10 (scFv, V domains shown)
VH: B2 VH with N31T, K32R, S54T, A56D
VL: B3 VL with V29S, S54P, P55S, D91G, S92R, R93Y, T94Q, Y95M, V96I
B11: A02 (scFv, V domains shown)
VH: B2 VH with S30T, N31S, K32R, G53Y, S54E, A56R, T58Q
VL: B2 VL
B12: A04 (scFv, V domains shown)
VH: B2 VH with N31S, K32R, A33S, A56D
VL: B2 VL
B13: A12 (scFv, V domains shown)
VH: B2 VH with S30D, K32R, G53S, A56S, T58M
VL: B3 VL with V29S, S54P, P55S
B14: B09 (scFv, V domains shown)
VH: B2 VH with F29Y, N31S, K32R, G53S, A56T
VL: B2 VL
B15: A11 (scFv, V domains shown)
VH: B2 VH with N31S, K32R, A33S, A56S, T58V
VL: B2 VL
B16: B04 (scFv, V domains shown)
VH: B2 VH with T28S, N31S, K32R, I51V, A56S, T57G
VL: B2 VL with S29L
B17: parental antibody against B7-H4, scFv-Fc (scFv, V domains shown)
VH: B2 VH with N31S, K32Y, A33S, A56G, T57S
VL: B3 VL with V29S, S54P, P55S
B18: B08 (scFv, V domains shown)
VH: B2 VH with N31D, K32R, G53A, T57S, T58R
VL: B2 VL
B19: B06 (scFv, V domains shown)
VH: B2 VH
VL: B2 VL with S29V, S31A
B20: A08 (scFv, V domains shown)
VH: B2 VH with S30G, N31D, K32R, G53S, A56T, T58S
VL: B2 VL
B21: A09 (scFv, V domains shown)
VH: B2 VH with N31S, K32R, A33S, A56L, T58S
VL: B2 VL
B22: B12 (scFv, V domains shown)
VH: B2 VH with N31D, K32R, S54T, T57S
VL: B2 VL

target: A06; test: SPR

Kd [nM]	koff [s⁻¹]	Binder
< 0.034	< 1e-05	B1

target: G05; test: SPR

Kd [nM]	koff [s⁻¹]	Binder
< 0.063	< 1e-05	B1

target: B01; test: SPR

Kd [nM]	koff [s⁻¹]	Binder
< 0.032	< 1e-05	B1

target: B05; test: SPR

Kd [nM]	koff [s⁻¹]	Binder
< 0.068	< 1e-05	B1

target: B7-H4 purified monomeric recombinant human protein (Homo sapiens, UniProt Q7Z7D3); test: SPR

Kd [nM]	koff [s⁻¹]	kon [M⁻¹ s⁻¹]	Binder
0.224	3.7e-05	170000	B2
0.059	1.1e-05	180000	B3
0.103	1.4e-05	140000	B4
0.068	1.2e-05	180000	B5
0.07	2.1e-05	300000	B6
0.277	4.7e-05	170000	B7
0.054	1.8e-05	330000	B8
0.117	2.2e-05	190000	B9
0.116	2.9e-05	260000	B10
0.039	1.1e-05	280000	B11
0.069	2.1e-05	310000	B12
0.139	3.2e-05	230000	B13
0.118	2.5e-05	210000	B14
0.06	1.1e-05	190000	B15
0.172	2.7e-05	160000	B16
7.43	0.0033	450000	B17
0.117	1.8e-05	150000	B18
0.097	1.7e-05	170000	B19
0.043	1.3e-05	310000	B20
0.074	1.1e-05	160000	B21
0.084	2.8e-05	340000	B22
